These results are taken from paper PMC4132754 (Nucleic Acids Research, 2014).

What all share (experiment): MST
One data set addresses T1, UPF1 WT (human, UniProt Q92900-2 1-1118).
T1 sequence: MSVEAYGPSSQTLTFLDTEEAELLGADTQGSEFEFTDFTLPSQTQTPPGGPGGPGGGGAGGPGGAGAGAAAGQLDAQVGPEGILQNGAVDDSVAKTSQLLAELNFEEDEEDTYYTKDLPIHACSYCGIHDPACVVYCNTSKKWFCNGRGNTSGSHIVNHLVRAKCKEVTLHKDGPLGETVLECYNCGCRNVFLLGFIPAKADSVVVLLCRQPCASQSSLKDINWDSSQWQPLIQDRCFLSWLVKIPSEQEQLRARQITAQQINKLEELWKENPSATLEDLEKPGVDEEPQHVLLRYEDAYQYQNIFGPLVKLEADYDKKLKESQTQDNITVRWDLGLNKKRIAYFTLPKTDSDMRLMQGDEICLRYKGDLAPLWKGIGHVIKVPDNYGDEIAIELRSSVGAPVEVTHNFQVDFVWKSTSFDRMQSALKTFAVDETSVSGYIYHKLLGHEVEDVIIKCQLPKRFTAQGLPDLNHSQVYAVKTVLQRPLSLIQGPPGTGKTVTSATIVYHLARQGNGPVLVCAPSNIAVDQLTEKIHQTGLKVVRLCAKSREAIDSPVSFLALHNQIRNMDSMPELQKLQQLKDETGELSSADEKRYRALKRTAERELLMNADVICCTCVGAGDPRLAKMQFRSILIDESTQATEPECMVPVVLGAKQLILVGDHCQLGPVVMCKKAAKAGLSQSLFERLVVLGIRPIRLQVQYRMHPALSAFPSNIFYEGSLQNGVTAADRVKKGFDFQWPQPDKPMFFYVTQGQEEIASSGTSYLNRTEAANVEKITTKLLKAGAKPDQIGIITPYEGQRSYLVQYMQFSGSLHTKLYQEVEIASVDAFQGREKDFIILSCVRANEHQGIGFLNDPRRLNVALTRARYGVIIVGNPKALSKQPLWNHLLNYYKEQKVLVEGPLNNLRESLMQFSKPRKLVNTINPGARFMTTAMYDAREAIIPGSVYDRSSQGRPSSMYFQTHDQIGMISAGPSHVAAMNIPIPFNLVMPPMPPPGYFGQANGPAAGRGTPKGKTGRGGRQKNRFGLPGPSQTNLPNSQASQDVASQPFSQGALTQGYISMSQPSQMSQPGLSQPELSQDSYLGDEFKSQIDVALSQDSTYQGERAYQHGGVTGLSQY

The target of another data set is T2, UPF1 ΔStalk (human, UniProt Q92900-2 1-1118, del271-433).
T2 sequence: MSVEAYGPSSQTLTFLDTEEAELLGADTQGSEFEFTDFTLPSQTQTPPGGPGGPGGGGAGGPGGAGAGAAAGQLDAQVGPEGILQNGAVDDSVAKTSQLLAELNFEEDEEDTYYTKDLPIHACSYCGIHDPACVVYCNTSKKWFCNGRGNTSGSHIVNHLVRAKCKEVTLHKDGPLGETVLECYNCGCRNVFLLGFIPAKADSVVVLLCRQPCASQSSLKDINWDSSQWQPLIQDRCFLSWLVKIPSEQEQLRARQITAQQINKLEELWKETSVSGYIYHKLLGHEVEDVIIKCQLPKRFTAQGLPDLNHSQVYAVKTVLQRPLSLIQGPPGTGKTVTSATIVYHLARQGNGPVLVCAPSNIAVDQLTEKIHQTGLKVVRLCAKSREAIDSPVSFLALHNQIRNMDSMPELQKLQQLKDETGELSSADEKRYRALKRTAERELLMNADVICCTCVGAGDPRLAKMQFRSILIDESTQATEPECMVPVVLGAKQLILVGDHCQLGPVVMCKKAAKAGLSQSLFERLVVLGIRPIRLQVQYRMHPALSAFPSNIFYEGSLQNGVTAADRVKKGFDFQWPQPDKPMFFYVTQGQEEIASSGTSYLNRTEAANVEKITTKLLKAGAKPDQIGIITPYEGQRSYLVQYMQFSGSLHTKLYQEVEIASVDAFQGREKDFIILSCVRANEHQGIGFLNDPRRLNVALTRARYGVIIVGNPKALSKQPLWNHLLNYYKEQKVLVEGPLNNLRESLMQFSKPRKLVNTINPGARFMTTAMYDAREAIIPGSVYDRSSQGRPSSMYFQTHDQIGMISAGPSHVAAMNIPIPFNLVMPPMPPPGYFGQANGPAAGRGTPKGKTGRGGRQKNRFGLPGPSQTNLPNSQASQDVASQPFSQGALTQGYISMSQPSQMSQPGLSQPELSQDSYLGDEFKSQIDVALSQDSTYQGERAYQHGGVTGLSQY

The next data set addresses SMG6 (human, UniProt Q86US8 1-1419).
The target in the next data set is T3, UPF1 Δ1C (human, UniProt Q92900-2 1-1118, del561-608).
T3 sequence: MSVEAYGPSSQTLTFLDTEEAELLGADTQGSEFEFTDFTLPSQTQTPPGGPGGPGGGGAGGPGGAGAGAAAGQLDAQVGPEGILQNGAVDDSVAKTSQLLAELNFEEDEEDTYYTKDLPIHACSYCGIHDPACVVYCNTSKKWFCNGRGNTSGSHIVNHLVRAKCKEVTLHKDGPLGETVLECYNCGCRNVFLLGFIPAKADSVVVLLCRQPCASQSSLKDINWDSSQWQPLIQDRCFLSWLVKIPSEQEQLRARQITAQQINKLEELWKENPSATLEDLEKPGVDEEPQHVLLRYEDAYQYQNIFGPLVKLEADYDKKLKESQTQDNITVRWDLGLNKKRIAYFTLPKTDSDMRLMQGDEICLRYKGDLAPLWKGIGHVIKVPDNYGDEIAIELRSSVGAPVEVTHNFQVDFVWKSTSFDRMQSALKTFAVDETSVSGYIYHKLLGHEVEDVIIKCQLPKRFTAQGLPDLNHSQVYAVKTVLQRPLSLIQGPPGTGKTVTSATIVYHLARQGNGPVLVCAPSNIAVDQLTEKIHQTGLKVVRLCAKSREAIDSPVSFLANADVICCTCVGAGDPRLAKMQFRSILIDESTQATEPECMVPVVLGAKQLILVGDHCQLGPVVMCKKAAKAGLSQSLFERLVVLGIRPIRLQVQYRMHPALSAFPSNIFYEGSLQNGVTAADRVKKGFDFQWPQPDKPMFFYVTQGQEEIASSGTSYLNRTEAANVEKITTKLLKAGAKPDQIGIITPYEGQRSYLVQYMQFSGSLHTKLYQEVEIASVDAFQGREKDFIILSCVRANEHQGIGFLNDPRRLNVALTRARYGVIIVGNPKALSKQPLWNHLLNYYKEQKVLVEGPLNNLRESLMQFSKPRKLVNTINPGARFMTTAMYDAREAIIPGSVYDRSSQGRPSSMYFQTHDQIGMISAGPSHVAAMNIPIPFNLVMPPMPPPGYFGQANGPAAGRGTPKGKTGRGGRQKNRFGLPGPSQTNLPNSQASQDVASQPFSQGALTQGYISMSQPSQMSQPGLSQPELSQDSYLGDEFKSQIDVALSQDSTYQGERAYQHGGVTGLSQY

Sequence of SMG6 (Q86US8 whole entry): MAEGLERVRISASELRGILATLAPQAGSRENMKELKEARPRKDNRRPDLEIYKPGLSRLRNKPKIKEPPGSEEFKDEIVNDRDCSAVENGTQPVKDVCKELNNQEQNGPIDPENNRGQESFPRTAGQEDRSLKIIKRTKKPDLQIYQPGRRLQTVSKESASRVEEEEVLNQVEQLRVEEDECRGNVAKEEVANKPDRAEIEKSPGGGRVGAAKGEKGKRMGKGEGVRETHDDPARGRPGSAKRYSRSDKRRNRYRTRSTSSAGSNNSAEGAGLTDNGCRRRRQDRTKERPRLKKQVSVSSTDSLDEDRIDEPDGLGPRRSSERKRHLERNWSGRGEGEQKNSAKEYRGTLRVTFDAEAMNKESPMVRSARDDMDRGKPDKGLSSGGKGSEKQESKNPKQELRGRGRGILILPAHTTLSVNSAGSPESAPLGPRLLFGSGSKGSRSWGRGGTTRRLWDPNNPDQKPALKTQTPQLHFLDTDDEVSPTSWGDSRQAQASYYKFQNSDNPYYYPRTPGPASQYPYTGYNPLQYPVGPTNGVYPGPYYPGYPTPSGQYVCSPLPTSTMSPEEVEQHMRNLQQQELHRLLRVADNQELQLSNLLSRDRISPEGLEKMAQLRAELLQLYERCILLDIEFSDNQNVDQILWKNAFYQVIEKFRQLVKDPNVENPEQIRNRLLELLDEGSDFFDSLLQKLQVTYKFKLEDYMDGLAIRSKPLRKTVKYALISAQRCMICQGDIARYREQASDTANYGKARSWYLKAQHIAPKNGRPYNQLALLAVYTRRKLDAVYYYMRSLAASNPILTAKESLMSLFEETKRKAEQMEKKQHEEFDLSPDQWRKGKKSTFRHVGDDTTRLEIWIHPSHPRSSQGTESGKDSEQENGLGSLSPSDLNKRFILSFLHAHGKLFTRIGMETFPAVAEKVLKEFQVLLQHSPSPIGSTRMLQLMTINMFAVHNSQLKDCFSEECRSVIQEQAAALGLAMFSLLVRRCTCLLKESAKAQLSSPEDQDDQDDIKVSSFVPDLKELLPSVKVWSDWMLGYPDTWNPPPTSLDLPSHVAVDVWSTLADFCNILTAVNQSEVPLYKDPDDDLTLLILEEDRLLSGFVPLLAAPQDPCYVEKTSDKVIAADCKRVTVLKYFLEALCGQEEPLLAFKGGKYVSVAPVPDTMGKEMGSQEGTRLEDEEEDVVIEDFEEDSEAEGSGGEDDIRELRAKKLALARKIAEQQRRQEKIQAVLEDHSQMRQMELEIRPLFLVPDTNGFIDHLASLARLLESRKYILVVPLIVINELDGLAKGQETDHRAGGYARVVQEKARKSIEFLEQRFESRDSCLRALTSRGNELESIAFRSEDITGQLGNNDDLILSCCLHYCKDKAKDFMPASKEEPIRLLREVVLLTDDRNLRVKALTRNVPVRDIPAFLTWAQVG

Regarding UUUUUUUUUUUUUUUUUUUUUUUUUUUUUU (ssRNA) [U30 RNA], the figures for the equilibrium dissociation constant (Kd) in the data set with UPF1 WT and with UPF1 ΔStalk were 1.48 nM and 6.51 nM, respectively. Besides, the binding result in the data set with SMG6 is “no binding”. Also, the binding signal in the data set with UPF1 Δ1C is 32.2 fold lower affinity than WT.
